# From patent US10058586B2, “Use of human small leucine zipper protein in adipocyte differentiation procedure” (Korea University Research and Business Foundation, priority 2013, dated 2018)
# T1: PPARγ2 and HDAC3 (Homo sapiens, UniProt P37231)
# T1 construct: expressed in transfected cells; host or cells: 293T cells
# T1 sequence (P37231 1-505): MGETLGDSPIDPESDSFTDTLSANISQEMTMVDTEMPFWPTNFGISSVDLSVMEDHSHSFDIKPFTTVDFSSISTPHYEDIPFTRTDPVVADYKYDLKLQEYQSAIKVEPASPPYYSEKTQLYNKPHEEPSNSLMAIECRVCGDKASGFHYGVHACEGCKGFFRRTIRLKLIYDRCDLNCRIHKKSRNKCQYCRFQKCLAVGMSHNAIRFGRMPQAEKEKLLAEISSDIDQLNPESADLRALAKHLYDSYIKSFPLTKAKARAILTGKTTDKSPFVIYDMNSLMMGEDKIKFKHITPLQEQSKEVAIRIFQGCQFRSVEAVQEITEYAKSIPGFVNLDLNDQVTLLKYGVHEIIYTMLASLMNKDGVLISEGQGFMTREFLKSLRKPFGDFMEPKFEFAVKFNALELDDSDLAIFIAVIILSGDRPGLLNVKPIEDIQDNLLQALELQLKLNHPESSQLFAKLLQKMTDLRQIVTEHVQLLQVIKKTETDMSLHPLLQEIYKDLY
# Legend:
# PPARγ2 and HDAC3 = molecular target: T1, PPARγ2 and HDAC3; test: GST pull-down of GST-HDAC3, Myc-PPARγ2 and Flag-sLZIP in 293T cells; assay type: binding; conditions: in the presence of ligand (10 nM RZD)
# Description: Therefore, in order to understand a regulation mechanism of sLZIP in the PPARγ2 transcriptional activity by binding to the FABP4 promoter region, an effect of sLZIP on the interaction between PPARγ2 and HDAC3 was examined. For this purpose, 293T cells were transfected with GST-HDAC3, Myc-PPARγ2 and Flag-sLZIP, and were treated or not treated with 10 nM of RZD for 24 hours. Cell lysates were subjected to GST pull-down analysis using a glutathione 4B bead, and a protein complex was analyzed in SDS-PAGE, and then immunoblotted with anti-GST, anti-Myc and anti-Flag antibodies (FIG. 6A). GST-HDAC3, GST-PPARγ2, Myc-PPARγ2, Flag-sLZIP and Ha-UB were expressed in the 293T cells, and the cells were treated with 10 nM of RZD for 24 hours. Cell lysates were subjected to GST pull-down analysis (FIG. 6B). GST-PPARγ2 and Flag-sLZIP were expressed in the 293T cells and treated with 10 nM of RZD for 24 hours. Cell lysates were subjected to GST pull-down analysis, and a protein complex was analyzed in SDS-PAGE, and then immunoblotted with anti-PGC1α, anti-GST and anti-Flag antibodies (FIG. 6C).
# [1] = system: FABP4 and other PPARγ2 target genes; test: RT-PCR and real-time PCR of PPARγ2 target genes in differentiated preadipocytes of sLZIP TG mice; assay type: cell-based, mouse; conditions: sLZIP TG mice preadipocytes differentiated into adipocytes
# Description: According to instructions of the manufacturer, a TRIzol reagent (Invitrogen, Carlsbad, Calif.) was added to directly lyse cells in a culture dish. Accupower RT PreMix (BioNeer, Daejeon, Korea) was used to synthesize cDNA from 2 μg of total RNA. A reaction was performed for 60 minutes at 42° C. and for 5 minutes at 94° C. PCR amplification was performed using oligomers listed in Table 2 and a Hipi PCR Mix Kit (ELPIS). As an internal control group, GAPDH was amplified. A PCR product was subjected to electrophoresis in 1-2% (w/v) agarose gel containing 0.5 μg/mL ethidium bromide. A size of the PCR product was measured by comparing it with 1 kb DNA ladder marker (Invitrogen). An intensity of bands amplified according to RT-PCR was analyzed using MultiImage™ Light Cabinet (version 5.5, Alpha Innotech Corp., San Leandro, Calif.).
# Real-time PCR was performed in LightCycler 480 using a SYBR Green Master Mix (Roche, Mannheim, Germany). β-actin was used as an internal control group. A target gene expression level rate with respect to β-actin was calculated using CT method. A Ct value is defined as a PCR cycle number at which a fluorescence signal reaches a fixed target threshold. Experiments were technically repeated three times for each experiment.
# Adipocyte differentiation is a well-regulated procedure. […] A promoter activity was measured according to luciferase analysis (FIG. 8B). […]
molecule,measurement,setting,value
"sLZIP: human small leucine-zipper protein, isoform of LZIP, 354 amino acids, no transmembrane domain; GenBank FJ263669, SEQ ID NO: 1 (protein, listed as Homo sapiens) MELELDAGDQDLLAFLLEESGDLGTAPDEAVRAPLDWALPLSEVPSDWEVDDLLCSLLSPPASLNILSSSNPCLVHHDHTYSLPRETVSMDLESESCRKEGTQMTPQHMEELAEQEIARLVLTDEEKSLLEKEGLILPETLPLTKTEEQILKRVRRKIRNKRSAQESRRKKKVYVGGLESRVLKYTAQNMELQNKVQLLEEQNLSLLDQLRKLQAMVIEISNKTSSSSMYSSDTRGSLPAEHGVLSRQLRALPSEDPYQLELPALQSEVPKDSTHQWLDGSDCVLQAPGNTSCLLHYMPQAPSAEPPLEWPFPDLFSEPLCRGPILPLQANLTRKGGWLPTGSPSVILQDRYSG",effect on interaction between PPARγ2 and HDAC3 (GST pull-down),PPARγ2 and HDAC3,enhanced interaction between PPARγ2 and HDAC3
same,"expression of FABP4 and other PPARγ2 target genes (C/EBPα, LPL) mRNA",[1],down-regulated
